Results as given in patent publication US20240151714A1.

Assays:
[1] = target: hCG-first DNA conjugate (human) (UniProt P01215); assay: cell-based or functional assay
[2] = target: hCG-second DNA conjugate (human) (UniProt P01215); assay: cell-based or functional assay
hCG-second DNA conjugate (human), sequence (P01215 other isoform, or with tags, fused parts or gaps limits assumed, chain 1 of 2, other chains not shown): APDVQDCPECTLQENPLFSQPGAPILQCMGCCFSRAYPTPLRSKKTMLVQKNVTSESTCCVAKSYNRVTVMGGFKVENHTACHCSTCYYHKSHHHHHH

hCG-first DNA conjugate (human), sequence (P01215 other isoform, or with tags, fused parts or gaps limits assumed, chain 1 of 2, other chains not shown): as above

limit of detection (LOD) for the antibody, PPR-based immunoassay (absorbance at 405 nm) [1]: 9.83 pM
limit of detection (LOD) for the antibody, PPR-based immunoassay (absorbance at 405 nm) [2]: 9.83 pM
Substance: hCG monoclonal antibody (MA5-14680; Thermo Fisher Scientific)
